Source: the Human Domainome abundance scans (Beltran et al. 2025)

B1: Tripartite motif-containing protein 49C, residues 87 to 133; numbered along this chain, P0CI26 (parent)
chain: SSEEQMCGTHRETKKIFCEVDRSLLCLLCSSSQEHRYHRHRPIEWAA

Variants of: B1
Experiment: abundance fitness (aPCA) (normalised: wild type 0, dead -1); higher = more abundant; growth selection in yeast, the domain comes from the species named
Conditions: Homo sapiens

Abundance fitness, by site and new letter:
L24: I -0.61 | V -0.139 | W -0.095 | Y -0.085 | F -0.069 | H -0.298 | T -0.099 | N -0.212 | E -0.106 | C -0.174 | P -0.217 | S -0.306 | K -0.403 | R -0.213 | Q -0.159 | A -0.044 | G -0.253 | D -0.294
L27: T 0.106 | G 0.145 | D 0.158 | Y 0.059 | R 0.149 | N 0.271 | P 0.132 | I -0.063 | F -0.015 | E 0.437 | M 0.231 | S 0.058 | W -0.017 | A 0.111 | Q 0.135
Q33: G -0.151 | Y 0.159 | L -0.012 | F -0.237 | H -0.197 | T -0.116 | V 0.01 | M -0.257 | E 0.081 | D -0.264 | W -0.352 | I 0.694 | P 0.391
H38: Y -0.711 | S -0.691 | K -0.607 | Q -0.562 | D -0.521 | T -0.599 | R -0.591 | I -0.892 | G -0.84 | V -0.851 | C -0.836 | E -0.33 | M -0.717 | A -0.573 | N -0.781 | W -0.708 | F -0.271
P42: C -0.049 | W -0.671 | Y -0.26 | K 0.11 | T -0.065 | L -0.324 | S -0.122 | F -0.289 | Q -0.081 | M -0.366 | N -0.103 | I -0.377 | H -0.264 | A 0.022 | R -0.221 | G -0.007 | V -0.393
C29: W -0.815 | V -0.959 | T -0.861 | M -0.935 | F -1.08 | E -0.63 | K -0.776 | S -1.06 | L -0.977 | G -0.716 | H -0.418 | A -0.675 | I -1.2 | N -0.816 | P -0.715
E34: H -0.046 | M -0.496 | Q -0.41 | L -0.659 | I -0.818 | W -0.928 | G -0.492 | K -0.246 | V -0.492 | D 0.041 | R -0.557 | N -0.417 | C -0.514 | P -0.834 | F -0.748 | T -0.349 | S -0.281
R36: V -0.213 | P -0.535 | D 0.001 | N -0.028 | Q -0.199 | W -0.66 | G -0.454 | H 0.064 | M -0.301 | T 0.001 | S -0.197 | I -0.217 | L -0.152 | K -0.15 | A 0.037 | Y -0.701 | E -0.308 | F -0.607
Y37: Q 0.155 | S 0.171 | F -0.059 | E 0.178 | T 0.051 | K 0.058 | W -0.218 | R -0.109 | H 0.181 | C -0.032 | V -0.243 | A 0.181 | D 0.176 | I -0.386 | N 0.226 | P -0.273 | L 0.127
S30: T -0.19 | F -0.776 | N -0.555 | I -0.435 | Q -0.665 | W -0.615 | H -0.528 | D -0.288 | E -0.165 | G -0.319 | Y -0.407 | R -0.697 | A 0.203 | P -0.622 | K -0.72 | M -0.176 | V -0.257
S32: C -0.414 | N -0.134 | R 0.017 | M -0.141 | P -0.442 | W -0.464 | T -0.278 | D -0.041 | L -0.313 | V -0.301 | H -0.483 | A -0.222 | Q -0.116 | I -0.947 | Y -0.224 | F -0.465 | E -0.364
H40: F -0.709 | K -0.908 | W -0.608 | R -0.563 | T -0.849 | D -0.083 | S -0.298 | Y -0.888 | C -0.623 | N -1.27 | V -0.439 | I -0.893 | Q -0.129 | M -0.633 | L -0.551 | P -0.767 | G -0.468
H35: Y -1.06 | E -0.997 | W -0.846 | P -0.676 | D -0.821 | T -0.929 | C -0.636 | R -0.799 | L -1.08 | I -0.882 | F -0.75 | Q -1.09 | K -0.929 | G -0.769 | V -0.892 | M -0.916
C26: M -1.08 | D -0.118 | W -1.09 | R -0.798 | G -0.734 | Q -0.776 | S -0.777 | F -0.901 | Y -1.15 | E -0.806 | H -0.962 | T -1.05 | V -1.1 | A -0.891 | L -0.787 | K -0.894
R22: Y -0.47 | V -0.575 | Q 0.117 | S -0.132 | W -0.504 | T -0.764
S23: M -0.062 | E 0.155 | N -0.835 | I -0.007 | R 0.058 | T 0.409 | K -0.035 | C -0.055 | A -0.035 | F -0.944 | P -0.686 | Q -0.152 | G -0.31 | V -0.132 | H -0.277
S31: E -0.123 | M -0.408 | I -0.065 | F -0.313 | L -0.493 | Q -0.152 | K -0.286 | W 0.015 | C -0.194 | A -0.048 | R -0.017 | Y -0.244 | T -0.328 | V -0.122 | P -0.544 | D -0.251
R41: W -0.413 | P -0.364 | F -0.29 | S 0.011 | G -0.34 | V -0.607 | D 0.496 | T -0.292 | M -0.39 | Q 0.09 | E -0.197 | A -0.084 | C -0.609 | Y -0.659 | K -0.402
L25: V 0.103 | R -0.45 | P -1.06 | Y -0.02 | S -0.394 | W -0.962 | A -0.639 | C -0.208 | Q -0.388 | F -0.581 | K -0.59 | H -0.081 | N -0.502 | I -0.033 | D -0.725 | T -0.612 | M -0.5 | E -0.586
R39: W -0.314 | M -0.155 | C -0.375 | N 0.363 | A -0.103 | F -0.356 | Y -0.328 | P -0.246 | Q 0.045 | H -0.131 | G -0.253 | E 0.203 | L -0.172 | T 0.02 | S 0.083 | I 0.162 | V -0.092 | D 0.257
L28: M 0.024 | R -0.068 | K 0.003 | E 0.189 | S 0.12 | W -0.368 | T 0.204 | P -0.095 | V 0.186 | Q 0.274 | F -0.422 | Y 0.056 | C -0.389 | H -0.246 | D -0.17 | N 0.075
